Measurements taken from the nanobody polyreactivity screen of Harvey et al. (2022).

test: yeast display, Sf9 membrane polyspecificity reagent, FACS + sequencing; frameworks hold sequencing errors
In short: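 After 36–48 hours of galactose induction, yeast (Saccharomyces cerevisiae BJ5465) displaying a synthetic nanobody library were stained at 4 °C for 1 hour with 10% biotinylated, detergent-solubilized Sf9 membrane reagent. Streptavidin microbeads enriched the stained cells before FACS sorting into low and high (top ~1%) gates on anti-HA and streptavidin fluorescence. Each clone's polyreactivity label reflects its gate of origin.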

Sequence	polyreactivity (PSR sort gate)
QVQLVESGGGLVQAGGSLRLSCAASGSIFEQYAMGWYRKAPGKERELVAAISSGGSTNYADSVKGRFTISRDNAKNTVYLQMNSLKPEDTAVYYCAAAYYTVGWLYYDYWYPFAYYYWGQGTQVTVSS	low polyreactivity
QVQLVESGGGLVQAGGSLRLSCAASGSIFGANTMGWYRQAPGKERELVAAISSGGNTYYADSVKGRFTISRDNAKNTVYLQMNSLKPEDTAVYYCNAQTRYRYQYGYLGGTGYNYWGQGTQVTVSS	low polyreactivity
QVQLVESGGGLLQAGGSLRLSCAASGSILDGNAMGWNRQAPGKERELVAAISYSGGSTYYADSVKGRFTISRDNAKNTVYLQIYSLKPEDTAVYYCAAGSISTPGRGVDKPDAYVYWGQGTQVTVSS	low polyreactivity
QVQLVESGGGLVQAGGSLRLSCAASGSTFGGYVMGWYRQAPGKERELVAAISRSGASTYYADSVKGRFTISRDNAKNTVYLQMNSLKPEDTAVYYCAAYQARGMDYWGQGTQVTVSS	high polyreactivity
QVQLVESGGGLVQAGGSLRLSCAASGRTYAYYAIGWYRQEPGKERELVAAISSGGSTYYADSVKGLFTISRDNAKNTVYLQMNSLKPEDTAVNYCATRDKQYYYWGQGTQVTLSS	high polyreactivity
QVQLVESGGGLVQAGGSLRLSCAASGRIFTYYAMGWFRQAPGKERELVAAISFRGSSTYYADSVKGRVTLSRDNAKNTVYLQRNSLKPEDTAVYYCAAERIARPTFDYWGQGTQVTVSS	low polyreactivity
QVQLVESGGGLVQAGGSLRLSCAASGSIFWRNAMGWYRQAPGKERELVAAISRVGSTNYADSVKGRFTISRDNAKNTVYLQMNSLKPEDTAVYYCAADGTVVRDFDYWGQGTQVTVSS	low polyreactivity
QVQLVESGGGLVQAGGSLRLSCAASGRIFYNYAMGWYRPAPGKDRVLVAAISVSGGSTYYADSEKGRFTISRDNAKNTVYLQMNSLKPEDTAVYYCAARRDRGYTREYWGQGTQVTVST	high polyreactivity
QVQLVESGGGLVQAGGSLRLSCAASGITFGSYAMGWYRQAPGKERELVAAITWRGGTTYYADSVKARFTISRDNAKNTVYLQMNSLKPEDTAVYYCNTAWTGYPRYQYGGNYWGQGTQVTVSS	high polyreactivity
QVQLVESGGGLVQAGGSLRLSCAASGSIFTLYAMGWYRQAPGKERELVAAITSGGRTYYADSVKGRFTISRDNAKNTVYLQMKSLKPEDTAVYYCNAVSRSWDFEYWGQGTQVTVSS	high polyreactivity
QVQLVESGGGLVQAGRSLRLSCAASGRIFGPYTMGWYRQAPGKEREFVAAITRRGGSTYYADSVKGRFTISRDNAKNTGYLQRHSLKPEDTAVYYCAAVGQKRSLGYSWGQGTQVTVSS	low polyreactivity
QVQLVDSGGGLVQAGGSLRLSCAASGLIFGYYDMGWYRQAPGKERELVAAITTGDSTYYADSVKGRFTISRDNAKNTVYLQMTCLKPEDSAVYYCSAYAFWYYESDYWGKGTQVTVSS	low polyreactivity
QVQLVESGGGLVQAGGSLRLSCAASGTIFNEYAMGWYRQAPGKERELVAAISTSGDITYYADSVKGRFTISRDNAKNTVYLQMNSLKPEDTAVYYCAAKYSLLRQYNRLDYWGQGTQVTVSS	low polyreactivity
QVQLVESGGGLVQAGGSLRLSCAASGNTFLRNTMGWYRQAPGKERELVAAISWGGGTTYYADSVKGRFTISRDNAKNTVYLQINSLKPEDSAVYYCNARYYSRRGNSWGQGTQVTVSS	high polyreactivity
QVQLVESGGGLVQAGGSLRLSCAASGFTFSWYAMGWYRQAPGKERELVAAITSGGGTNYADSVKGRFTISRDNAKNTVYLQMNSLKPEDTAVYYCAARGRWFYYLDDYWGQGTQVTVSS	low polyreactivity
QFQLVESCGGLVPAGGSLRLSCAASGRILSDYAMGWYRQAPGKERELVAVISWDGTNTYYADSVKGRFPISRDNAKNTVYLQMNSLKPEDTAVYYCAATGTSYYSAYDYWGQGTQVTVSS	low polyreactivity

Sequence	polyreactivity (PSR sort gate)
QVQLVESGGGLVQAGGSLRLSCAASGSIFSVYAMGWYRQAPGKERELVAAIDFSGGSTYYADSVKGRFTISRDNPKNTVYLQMNSLKPEDTAVYYCAAEYLPYPEYEYDYWGQGTQVTVSS	low polyreactivity
QVQLVESGGGLVQAGGSLRLSFAASGSIFVKYAMGWYRQAPGKERELVAAITTGVGSTYYADSLKGRFTISRDNAKNTVYLQMNSLKPEDTAVYYCAVRPPRVRTVFYGGNYWGQGTQVTVSS	low polyreactivity
QVQLVESGGGLVQAGGSLRLSCAASGSTYYTNAMGWYRQAPGKERELVATITSSGGITSYADSVKGRFTISRDNAKNTVYLQMNSVKPEDTAVYYCAADFGSSYDTHEYGYWGQGTQVTVSS	low polyreactivity
QVQLVESGGGLVQAGGSLRLTCAASGSTLYSYAMGWYRPAPGKERELVAAISKSGGRTYYADSVKGRFTISRDNAKISVYLEMNSLKPEDTAVYYCAGREKYTPALEVEYWGQGTQVTVSS	high polyreactivity
QVQLVESGGGLVQAGGSLRLTCAASGRIFDRYVMGWYRQAPGKERELVAAITFSGGRTYYADSVKGRFTISRDNAKNTVYLQMNSLKPEDTAVYYCNRVYYQKIYDYWGQGTQVTVSS	high polyreactivity
QVQLVESGGGLVQAGGSLRLSCAASGRTFYFYAMGWYRQAPGKERELVAAITSRVGRTYYADSVKGRFTISRDNAKNTVYLQMNSLKPEDTAVYYCAAEGVYRMGYWGQGTQVTVSS	high polyreactivity
QVQLVESGGGLVQAGGSLRLSCAAYGSTFTDYDMGWYRQAPGKERELVAAITSGGSTNYADSVKGRFTISRDNAKNTVYLQMNSLKPEDTAVYYCAAADADRKYDYWGQGTQVTVSS	low polyreactivity
QGHLVESWGGLVQAGGSLRLSCAASGSIFKDNAMGWYRQAPGKERELVAAITWSGGSTYYADSVKGRFTSSRDNANNTVYLQMNSLKAEDTAVDRYKYDYWGQGTQVTVSS	low polyreactivity
QVQLVESGGGLVQAGGSLRLSCAASGSTFTIYVIGWYRTAPGKERELVAAINGGGRTNYADSVKGRFTISRDNAKNTVYLQMNSLKPEDTAVYYCAADGLSNVRQMDYWGQGTQVTVSS	low polyreactivity
QVQLVESGGGLVQAGGSLSLSCAASGFTFGRNAMGWYRQAPGKERELVASIDWSGGSTYYADSVKGRFTISRDNAKNTVYLQMNSLKPEDTAVYYCAVGPNSVGNRSYGFDYWGQGTQVTVSS	low polyreactivity
QVQLVESGGGLFQAGGSLRLSCAASGIIFRGNAMGWYRQATVKERELVAAISKSGGRTYYADSVKGRFTISRDNAKNTVYLEMICLKPEDSAVYYCAARFYAVGGYDYWGQGTQVTVSS	high polyreactivity
QVQLQDSVGCLVQAGGSLRLSCAASGSISIYGYMGWYRQAPGNERELVAAITAGGSTYYADSVKGRFTISRDNAKNTVYLLMKSLKPEDTAVYYCAPYEQRVYDLHYWGQGTQVTVSS	high polyreactivity
QVQLVESGGGLVQAGGSLRLSCAASEFIFARNGMGWYRQAPGKERELVAAITNSGSTYADSVKGRFTISRDNAKNTVYLQMNSLKPEDTAVYYCNKDPGNVSSYTGGGYWGQGTQVTVSS	low polyreactivity
QVQLVESGGGLVQAGGSLRLSCAASGRTFLRYAMGWYRQAPGTERELVAAISWSGGRTYYADSVKGRFTISRDNAKNTVYLQMNSLKPEDTAVYYCNKVVLYGAHYYYWGQGTQVTVSS	high polyreactivity
QVQLVESGGGLVQAGGSLRLSCAASGFTFRYYVMGWYRQAPGTERELVAAISWTGGSTYYADSVKGRFTISRDNAKNTVYLQMTSLKPEDTAVYYCNAASLSKSDYWGQGTQVTVSS	high polyreactivity
QVQLVESGGGLVQAGGSLRLSCASSGRIFSDYAMGWYRQAPGKEMEFVAAISSSGGRTYYADSVKGRFTISRDNAKNTFYLQMNSLKQEDTAVYYCNRYYGYYNTGRYGYWGQGTQVTVSS	high polyreactivity
